Assay results from PMC3718342.

Molecular target: T1, 6His-Scy (recombinant, from E. coli)
T1 chain: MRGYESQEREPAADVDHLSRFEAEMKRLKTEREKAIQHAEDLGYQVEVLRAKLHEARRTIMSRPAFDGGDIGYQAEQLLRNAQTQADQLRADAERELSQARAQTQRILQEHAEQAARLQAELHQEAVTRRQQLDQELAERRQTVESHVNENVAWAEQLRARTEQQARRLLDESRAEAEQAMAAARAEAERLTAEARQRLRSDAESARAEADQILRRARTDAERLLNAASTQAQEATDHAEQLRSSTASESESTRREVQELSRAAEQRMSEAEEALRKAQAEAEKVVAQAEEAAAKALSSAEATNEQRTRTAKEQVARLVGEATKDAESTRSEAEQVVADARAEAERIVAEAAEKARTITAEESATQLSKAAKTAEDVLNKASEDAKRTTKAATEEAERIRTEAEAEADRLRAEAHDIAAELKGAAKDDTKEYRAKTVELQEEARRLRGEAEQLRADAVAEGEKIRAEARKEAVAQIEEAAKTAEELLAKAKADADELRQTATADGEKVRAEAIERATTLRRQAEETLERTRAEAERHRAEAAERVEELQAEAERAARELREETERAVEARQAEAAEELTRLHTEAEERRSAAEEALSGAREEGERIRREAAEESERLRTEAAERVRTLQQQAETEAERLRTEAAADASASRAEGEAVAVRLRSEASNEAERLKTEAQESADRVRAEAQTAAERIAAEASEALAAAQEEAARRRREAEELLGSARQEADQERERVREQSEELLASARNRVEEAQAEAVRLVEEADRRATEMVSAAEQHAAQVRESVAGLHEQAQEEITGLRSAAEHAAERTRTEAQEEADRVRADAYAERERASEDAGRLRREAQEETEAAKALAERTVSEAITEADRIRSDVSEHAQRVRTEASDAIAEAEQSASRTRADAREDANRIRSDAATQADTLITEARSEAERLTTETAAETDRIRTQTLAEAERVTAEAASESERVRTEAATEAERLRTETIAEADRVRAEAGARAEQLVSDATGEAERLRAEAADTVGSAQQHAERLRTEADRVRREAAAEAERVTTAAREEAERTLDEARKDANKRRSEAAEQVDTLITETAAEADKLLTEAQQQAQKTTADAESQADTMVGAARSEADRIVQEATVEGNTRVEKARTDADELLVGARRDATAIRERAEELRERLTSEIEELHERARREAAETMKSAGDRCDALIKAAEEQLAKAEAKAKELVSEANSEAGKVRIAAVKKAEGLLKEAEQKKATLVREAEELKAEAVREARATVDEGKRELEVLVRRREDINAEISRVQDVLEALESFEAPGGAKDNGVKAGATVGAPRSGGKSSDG
Assay: SPR
Conditions: chain shown with the change, ParA or ParAScy- (500 RU) immobilized on CM5 in the presence of ATP, read off a plot

B1: ParA (purified recombinant wild type) S249Y; E250V (protein)
chain: MDDTPIGRAAQLAVEALGRAGEGLPRPEQTRVMVVANQKGGVGKTTTTVNLAASLALHGARVLVVDLDPQGNASTALGIDHHADVPSIYDVLVESRPLSEVVQPVPDVEGLFCAPATIDLAGAEIELVSLVARESRLQRAITAYEQPLDYILIDCPPSLGLLTVNALVAGQEVLIPIQCEYYALEGLGQLLRNVDLVRGHLNPTLHVSTILLTMYDGRTRLASQVADEVRSHFGEEVLRTSIPRSVRIYVAPSYGQTVLTYDPGSSGALSYLEAAREIALKGVGVTYDATHAHLGAQNDPSMVEGTQ
For B1, which response (600 nM 6His-Scy, parent: est. 13) is on record?
The response was 4.5 RU.

What about the response (1000 nM 6His-Scy, parent: est. 27) of the same binder?
Its response is 12 RU.

What about the response (2000 nM 6His-Scy, parent: est. 43) of the same binder?
Its response is 17 RU.

What about the response (4000 nM 6His-Scy, parent: est. 53) of the same binder?
The response was 25 RU.
